Patent US20110054149A1 (published 2011)

The binders below were run against T1, GST-human NOGO-A56 (human, UniProt Q9NQC3 586-785) (assay: SPR (Biacore 3000), GST-human NOGO-A56 on CM5 chip, antibody as analyte; single experiment).
T1 construct: also called hNOGO; recombinant human NOGO; not shown: Glutathione S-transferase (GST) tag encoded by vector pGEX-6P1, N-terminal to the NOGO-A fragment; the tag and linker se
T1 sequence: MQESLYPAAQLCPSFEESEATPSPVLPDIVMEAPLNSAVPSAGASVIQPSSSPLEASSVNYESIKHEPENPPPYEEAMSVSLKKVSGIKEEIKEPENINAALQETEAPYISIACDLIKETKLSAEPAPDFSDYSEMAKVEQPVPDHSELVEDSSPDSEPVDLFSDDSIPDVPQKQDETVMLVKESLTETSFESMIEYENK
Description: (§1) The binding kinetics of the anti-NOGO monoclonal antibody (mAb) to recombinantly expressed human NOGO-A (GST-human NOGO-A56) was analysed using the Biacore3000 biosensor. The hNOGO-A chip was prepared as follows:
(§2) hNOGO (GST-human NOGO-A56) was immobilised to a CM5 chip by primary amine coupling using the Biacore Wizard program designed for targeted immobilisation levels. The CM5 sensor surface was activated by passing a solution of 50 mM N-hydroxy-succinimide (NHS) and 200 mM N-ethyl-N′-dimethylaminopropyl […] (EDC). Then hNOGO in sodium acetate buffer, pH5.0 or pH 4.5, was passed over the chip and immobilised. After immobilisation was complete any still activated esters were blocked by an injection of 1M ethanolamine hydrochloride, pH8.5.
(§3) The anti-NOGO mAbs were diluted down in HBS-EP (10 mM HEPES, pH 7.4, 150 mM NaCl, 3 mM EDTA, and 0.005% P-20 surfactant) and binding studies were carried out at range of defined antibody concentrations. All runs were referenced against a blanked sensor surface (one that had been activated and blocked as described earlier but had no addition of ligand). Analysis of binding was carried out using the BIAevaluation kinetic analysis software version 4.1. Biacore analysis of other antibodies of the invention essentially followed the same protocol as described herein.

Kd [nM] | koff [s⁻¹] | kon [M⁻¹ s⁻¹] | Binder
30.3 | 0.047 | 1.5e+06 | H5L6 (antibody, human IgG1, kappa, V domains shown, Humanised 2A10; human gamma-1 mutated constant region, human kappa) VH: QVQLVQSGAEVKKPGASVKVSCKASGYTFTSYWMHWVRQAPGQGLEWMGNINPSNGGTNYNEKFKSRVTMTRDTSTSTAYMELSSLRSEDTAVYYCELGQGYWGQGTLVTVSS VL: DIVMTQSPLSLPVTPGEPASISCRSSKSLLYKDGKTYLNWFLQRPGQSPQLLIYLMSTRASGVPDRFSGSGSGTDFTLKISRVEAEDVGVYYCQQLVEYPLTFGGGTKVEIKR
21.4 | 0.0254 | 1.2e+06 | H6L6 (antibody, human IgG1, kappa, V domains shown, Humanised 2A10; human gamma-1 mutated constant region, human kappa) VH: QVQLVQSGAEVKKPGASVKVSCKASGYTFTSYWMHWVRQAPGQGLEWIGNINPSNGGTNYNEKFKSRATMTRDTSTSTAYMELSSLRSEDTAVYYCELGQGYWGQGTLVTVSS VL: DIVMTQSPLSLPVTPGEPASISCRSSKSLLYKDGKTYLNWFLQRPGQSPQLLIYLMSTRASGVPDRFSGSGSGTDFTLKISRVEAEDVGVYYCQQLVEYPLTFGGGTKVEIKR
19.4 | 0.0233 | 1.19e+06 | H700L11 (antibody, human IgG1, kappa, V domains shown, Humanised 2A10; human gamma-1 mutated constant region, human kappa) VH: QVQLVQSGAEVKKPGASVKVSCKASGYTFTSYWMHWVRQAPGQGLEWIGNINPSNGGTNYNEKFKSRATLTVDKSTSTAYMELSSLRSEDTAVYYCELGQGYWGQGTLVTVSS VL: DIVITQSPLSLPVTLGQPASISCRSSKSLLYKDGKTYLNWFQQRPGQSPQLLIYLMSTRASGVPDRFSGGGSGTDFTLKISRVEAEDVGVYYCQQLVEYPLTFGQGTKLEIKR
1.98 | 0.00938 | 4.8e+06 | HcL13 (antibody, human IgG1, kappa, Chimeric heavy chain Hc paired with humanised light chain L13) heavy: not shown light: DIVMTQSPLSLPVTLGQPASISCRSSKSLLYKDGKTYLNWFQQRPGQSPQLLIYLMSTRASGVPDRFSGGGSGTDFTLKISRVEAEDVGVYYCQQLVEYPLTFGQGTKLEIKRTVAAPSVFIFPPSDEQLKSGTASVVCLLNNFYPREAKVQWKVDNALQSGNSQESVTEQDSKDSTYSLSSTLTLSKADYEKHKVYACEVTHQGLSSPVTKSFNRGEC
3.55 | 0.0134 | 3.78e+06 | HcL11 (antibody, human IgG1, kappa, Chimeric heavy chain Hc paired with humanised light chain L11) heavy: not shown light: DIVITQSPLSLPVTLGQPASISCRSSKSLLYKDGKTYLNWFQQRPGQSPQLLIYLMSTRASGVPDRFSGGGSGTDFTLKISRVEAEDVGVYYCQQLVEYPLTFGQGTKLEIKRTVAAPSVFIFPPSDEQLKSGTASVVCLLNNFYPREAKVQWKVDNALQSGNSQESVTEQDSKDSTYSLSSTLTLSKADYEKHKVYACEVTHQGLSSPVTKSFNRGEC
12.9 | 0.0212 | 1.64e+06 | H10L13 (antibody, V domains shown) VH: QVQLVQSGAEVKKPGASVKLSCKASGYTFTSYWMHWVKQAPGQGLEWIGNINPSNGGTNYNEKFKSRATLTVDKSTSTAYMELSSLRSEDTAVYYCELGQGYWGQGTLVTVSS VL: DIVMTQSPLSLPVTLGQPASISCRSSKSLLYKDGKTYLNWFQQRPGQSPQLLIYLMSTRASGVPDRFSGGGSGTDFTLKISRVEAEDVGVYYCQQLVEYPLTFGQGTKLEIK

These binders were tested against T1, GST-human NOGO-A56 (assay: SPR off-rate ranking (Biacore), CHO-K1 transfection supernatant over GST-human NOGO-A56 chip; single experiment).
Description: as §2
The hNOGO chip was prepared as for kinetic analysis. Cell supernatants where taken directly from transient transfections of CHO—K1 cells. These were passed directly over the sensor surface and the interaction measured. A mock transfected cell supernatant was used for double referencing to remove any artefacts due to the tissue culture media. All runs were referenced against a blanked sensor surface (one that had been activated and blocked as described earlier but had no addition of ligand). Analysis of binding was carried out using the BIAevaluation kinetic analysis software version 4.1.

koff [s⁻¹] | Binder
0.0138 | H14L13 (antibody, human IgG1, kappa, V domains shown, Humanised 2A10; tested as CHO-K1 transfection supernatant; Human gamma-1 mutated constant region, human kappa) VH: QVQLVQSGAEVVKPGASVKLSCKASGYTFTSYWMHWVKQAPGQGLEWIGNINPSNGGTNYNEKFKSRATLTRDTSTSTAYMELSSLRSEDTAVYYCELGQGYWGQGTLVTVSS VL: DIVMTQSPLSLPVTLGQPASISCRSSKSLLYKDGKTYLNWFQQRPGQSPQLLIYLMSTRASGVPDRFSGGGSGTDFTLKISRVEAEDVGVYYCQQLVEYPLTFGQGTKLEIKR
0.0457 | H6L14 (antibody, human IgG1, kappa, Humanised 2A10; tested as CHO-K1 transfection supernatant; Human gamma-1 mutated constant region, human kappa) heavy: not shown light: DIVMTQSPLSLPVTLGQPASISCRSSKSLLYKDGKTYLNWFLQRPGQSPQLLIYLMSTRASGVPDRFSGGGSGTDFTLKISRVEAEDVGVYYCQQLVEYPLTFGQGTKLEIKRTVAAPSVFIFPPSDEQLKSGTASVVCLLNNFYPREAKVQWKVDNALQSGNSQESVTEQDSKDSTYSLSSTLTLSKADYEKHKVYACEVTHQGLSSPVTKSFNRGEC
0.0211 | H6L15 (antibody, human IgG1, kappa, V domains shown, Humanised 2A10; tested as CHO-K1 transfection supernatant; Human gamma-1 mutated constant region, human kappa) VH: QVQLVQSGAEVKKPGASVKVSCKASGYTFTSYWMHWVRQAPGQGLEWIGNINPSNGGTNYNEKFKSRATMTRDTSTSTAYMELSSLRSEDTAVYYCELGQGYWGQGTLVTVSS VL: DIVMTQSPLSLPVTLGQPASISCRSSKSLLYKDGKTYLNWFLQRPGQSPQLLIYLMSTRASGVSDRFSGGGSGTDFTLKISRVEAEDVGVYYCQQLVEYPLTFGQGTKLEIKR
0.0114 | H6L16 (antibody, human IgG1, kappa, Humanised 2A10; tested as CHO-K1 transfection supernatant; Human gamma-1 mutated constant region, human kappa) heavy: not shown light: DIVMTQSPLSNPVTLGQPVSISCRSSKSLLYKDGKTYLNWFLQRPGQSPQLLIYLMSTRASGVPDRFSGGGSGTDFTLKISRVEAEDVGVYYCQQLVEYPLTFGQGTKLEIKRTVAAPSVFIFPPSDEQLKSGTASVVCLLNNFYPREAKVQWKVDNALQSGNSQESVTEQDSKDSTYSLSSTLTLSKADYEKHKVYACEVTHQGLSSPVTKSFNRGEC
0.0158 | H6L17 (antibody, human IgG1, kappa, V domains shown, Humanised 2A10; tested as CHO-K1 transfection supernatant; Human gamma-1 mutated constant region, human kappa) VH: QVQLVQSGAEVKKPGASVKVSCKASGYTFTSYWMHWVRQAPGQGLEWIGNINPSNGGTNYNEKFKSRATMTRDTSTSTAYMELSSLRSEDTAVYYCELGQGYWGQGTLVTVSS VL: DIVMTQDPLSLPVTLGQPASISCRSSKSLLYKDGKTYLNWFQQRPGQSPQLLIYLMSTRASGVSDRFSGSGSGTDFTLKISRVEAEDVGVYYCQQLVEYPLTFGQGTKLEIKR
0.0106 | H6L18 (antibody, human IgG1, kappa, V domains shown, Humanised 2A10; tested as CHO-K1 transfection supernatant; Human gamma-1 mutated constant region, human kappa) VH: QVQLVQSGAEVKKPGASVKVSCKASGYTFTSYWMHWVRQAPGQGLEWIGNINPSNGGTNYNEKFKSRATMTRDTSTSTAYMELSSLRSEDTAVYYCELGQGYWGQGTLVTVSS VL: DIVMTQDPLSNPVTLGQPVSISCRSSKSLLYKDGKTYLNWFLQRPGQSPQLLIYLMSTRASGVSDRFSGSGSGTDFTLKISRVEAEDVGVYYCQQLVEYPLTFGQGTKLEIKR
0.00965 | H15L13 (antibody, human IgG1, kappa, V domains shown, Humanised 2A10; tested as CHO-K1 transfection supernatant; Human gamma-1 mutated constant region, human kappa) VH: QVQLVQSGAEVVKPGASVKLSCKASGYTFTSYWMHWVKQRPGQGLEWIGNINPSNGGTNYNEKFKSKATLTVDTSSSTAYMELSSLRSEDSAVYYCELGQGYWGQGTLVTVSS VL: DIVMTQSPLSLPVTLGQPASISCRSSKSLLYKDGKTYLNWFQQRPGQSPQLLIYLMSTRASGVPDRFSGGGSGTDFTLKISRVEAEDVGVYYCQQLVEYPLTFGQGTKLEIKR
0.00604 | H15L16 (antibody, human IgG1, kappa, V domains shown, Humanised 2A10; tested as CHO-K1 transfection supernatant; Human gamma-1 mutated constant region, human kappa) VH: QVQLVQSGAEVVKPGASVKLSCKASGYTFTSYWMHWVKQRPGQGLEWIGNINPSNGGTNYNEKFKSKATLTVDTSSSTAYMELSSLRSEDSAVYYCELGQGYWGQGTLVTVSS VL: DIVMTQSPLSNPVTLGQPVSISCRSSKSLLYKDGKTYLNWFLQRPGQSPQLLIYLMSTRASGVPDRFSGGGSGTDFTLKISRVEAEDVGVYYCQQLVEYPLTFGQGTKLEIKR

These binders were tested against T1, GST-human NOGO-A56 (assay: SPR (Biacore 3000), GST-human NOGO-A56 amine-coupled to CM5 chip, antibody as analyte; mean (SD) of four experiments).
Description: as §1, §2, §3

Kd [nM] | koff [s⁻¹] | kon [M⁻¹ s⁻¹] | Binder
1.82 | 0.0061 | 3.38e+06 | H17L16 (antibody, human IgG1, kappa, Humanised 2A10; human gamma-1 mutated constant region, human kappa) heavy: not shown light: DIVMTQSPLSNPVTLGQPVSISCRSSKSLLYKDGKTYLNWFLQRPGQSPQLLIYLMSTRASGVPDRFSGGGSGTDFTLKISRVEAEDVGVYYCQQLVEYPLTFGQGTKLEIKRTVAAPSVFIFPPSDEQLKSGTASVVCLLNNFYPREAKVQWKVDNALQSGNSQESVTEQDSKDSTYSLSSTLTLSKADYEKHKVYACEVTHQGLSSPVTKSFNRGEC
